Data published in patent US20100111958A1 (published 2010).
Positions count from the first letter of the chain named.

Key:
[1] = molecular target: T1, recombinant Notch2 (EGF1-12) Fc fusion protein (human); assay: phage selection and ELISA screen on passively immobilized Notch2 (EGF1-12) Fc fusion
T1 construct: passively immobilised for phage selection and ELISA screen; also called Notch2 Fc fusion protein
Procedure: Briefly, 2×10¹³ Fab displaying phage particles were incubated with a passively immobilized, recombinant Notch2 Fc fusion protein (SEQ ID NO:21) comprising the extracellular ligand binding site of Notch2 and surrounding EGF repeats (EGF1-12) in round one. The non-specific phage were washed off, and then the specific phage were eluted with DTT. The eluted output was used to infect TG1 F+bacteria, rescued with helper phage, and then Fab display induced with IPTG (0.25 mM). This process was repeated for two additional rounds and then round three was screened in ELISA against passively immobilized recombinant Notch2 (EGF1-12) Fc fusion (5 μg/ml).

[2] = molecular target: T2, human Notch1 with residues 382-386 mutated to the corresponding human Notch2 residues (385-389), full length, … (human, UniProt P46531 19-2555); assay: FACS on transiently transfected HEK 293 cells
T2 construct: G384 is the same in both; also called mutant hNotch1; mutated Notch1
T2 sequence (P46531 other isoform, or with tags, fused parts or gaps limits assumed, change not shown): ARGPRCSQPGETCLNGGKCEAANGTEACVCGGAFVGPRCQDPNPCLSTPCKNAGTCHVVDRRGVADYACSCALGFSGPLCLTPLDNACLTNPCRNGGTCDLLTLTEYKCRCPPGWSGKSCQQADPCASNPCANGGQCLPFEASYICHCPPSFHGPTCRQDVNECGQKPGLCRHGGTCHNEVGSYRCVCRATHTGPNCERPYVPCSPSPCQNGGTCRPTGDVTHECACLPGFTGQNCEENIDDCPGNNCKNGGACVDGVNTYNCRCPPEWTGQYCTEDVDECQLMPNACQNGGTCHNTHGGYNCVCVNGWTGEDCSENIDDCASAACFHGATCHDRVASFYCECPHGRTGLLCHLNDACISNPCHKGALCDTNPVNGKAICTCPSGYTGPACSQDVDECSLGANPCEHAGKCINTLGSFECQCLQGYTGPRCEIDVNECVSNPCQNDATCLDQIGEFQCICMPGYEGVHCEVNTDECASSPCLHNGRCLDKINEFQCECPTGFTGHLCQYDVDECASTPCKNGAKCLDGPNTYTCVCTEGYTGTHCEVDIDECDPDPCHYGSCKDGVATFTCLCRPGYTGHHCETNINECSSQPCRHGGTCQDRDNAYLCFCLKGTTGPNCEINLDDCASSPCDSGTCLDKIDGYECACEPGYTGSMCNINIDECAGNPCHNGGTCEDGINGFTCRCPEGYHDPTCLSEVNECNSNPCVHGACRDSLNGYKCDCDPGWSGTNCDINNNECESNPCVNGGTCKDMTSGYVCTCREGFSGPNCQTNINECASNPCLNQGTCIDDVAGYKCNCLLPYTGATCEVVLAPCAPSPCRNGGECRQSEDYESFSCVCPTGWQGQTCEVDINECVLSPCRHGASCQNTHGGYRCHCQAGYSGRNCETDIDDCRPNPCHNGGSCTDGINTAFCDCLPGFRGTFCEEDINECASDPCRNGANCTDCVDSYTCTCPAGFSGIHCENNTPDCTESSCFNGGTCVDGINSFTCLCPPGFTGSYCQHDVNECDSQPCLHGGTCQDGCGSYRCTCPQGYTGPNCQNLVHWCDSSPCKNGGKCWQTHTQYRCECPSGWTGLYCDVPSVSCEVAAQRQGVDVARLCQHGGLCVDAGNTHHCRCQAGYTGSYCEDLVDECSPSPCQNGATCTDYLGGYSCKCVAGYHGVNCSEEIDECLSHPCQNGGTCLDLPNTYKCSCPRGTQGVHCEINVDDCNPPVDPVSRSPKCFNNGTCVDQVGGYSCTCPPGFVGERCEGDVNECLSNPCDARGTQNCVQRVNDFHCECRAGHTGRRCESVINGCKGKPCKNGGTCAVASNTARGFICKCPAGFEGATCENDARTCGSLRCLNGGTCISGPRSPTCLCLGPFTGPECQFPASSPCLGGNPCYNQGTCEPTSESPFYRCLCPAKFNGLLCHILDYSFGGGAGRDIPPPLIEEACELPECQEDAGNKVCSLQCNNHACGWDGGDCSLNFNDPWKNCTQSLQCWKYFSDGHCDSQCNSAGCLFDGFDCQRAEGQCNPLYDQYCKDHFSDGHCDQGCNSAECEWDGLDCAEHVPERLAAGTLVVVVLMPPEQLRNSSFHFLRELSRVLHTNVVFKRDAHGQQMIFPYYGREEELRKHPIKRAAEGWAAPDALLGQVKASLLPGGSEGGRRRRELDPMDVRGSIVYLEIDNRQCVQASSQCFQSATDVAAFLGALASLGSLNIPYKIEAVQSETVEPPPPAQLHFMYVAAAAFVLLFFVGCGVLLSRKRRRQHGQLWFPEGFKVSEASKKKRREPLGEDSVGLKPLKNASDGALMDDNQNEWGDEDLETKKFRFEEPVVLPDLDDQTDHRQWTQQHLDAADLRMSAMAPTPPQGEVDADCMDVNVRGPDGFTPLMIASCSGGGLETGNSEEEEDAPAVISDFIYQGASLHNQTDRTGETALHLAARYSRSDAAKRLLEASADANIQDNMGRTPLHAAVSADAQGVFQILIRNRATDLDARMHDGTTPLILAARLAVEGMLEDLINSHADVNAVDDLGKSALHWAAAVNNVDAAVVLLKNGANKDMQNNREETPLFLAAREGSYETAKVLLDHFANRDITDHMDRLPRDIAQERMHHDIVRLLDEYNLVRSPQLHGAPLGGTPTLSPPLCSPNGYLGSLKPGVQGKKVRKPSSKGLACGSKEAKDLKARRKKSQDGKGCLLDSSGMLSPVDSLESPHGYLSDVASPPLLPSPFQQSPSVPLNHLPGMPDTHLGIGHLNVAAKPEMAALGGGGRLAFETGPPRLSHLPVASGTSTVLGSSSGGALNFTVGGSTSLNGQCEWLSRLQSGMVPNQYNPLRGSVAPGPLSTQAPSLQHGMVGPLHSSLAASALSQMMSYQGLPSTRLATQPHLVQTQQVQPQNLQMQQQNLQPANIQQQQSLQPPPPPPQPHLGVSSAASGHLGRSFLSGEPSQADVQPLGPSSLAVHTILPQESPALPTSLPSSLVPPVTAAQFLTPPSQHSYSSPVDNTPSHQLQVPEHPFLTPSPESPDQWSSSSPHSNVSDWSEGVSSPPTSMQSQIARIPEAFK
Procedure: FIG. 15. In vitro characterization of 59R5. […] PC3 tumor cells were transiently transfected with human or mouse Notch receptor (hN2, human Notch2; mN2, murine Notch2; hN3, human Notch3; mN3, murine Notch3) and GFP inducible reporter construct. Transfected cells were incubated with different concentrations of antibody 59R1 and 59R5 in the presence of passively immobilized DLL4 Fc. […] Cells were also co-transfected with a plasmid encoding green fluorescent protein (GFP) to mark those cells that received transfected plasmid. Cells were incubated with 59R1 or 59R5 and fluorescent secondary antibody and then examined by FACS.
The binding epitope of 59R5 was determined. As was described in Example 3 for analysis of antibody 59R1, several point mutants were created within full-length Notch1, converting residues within EGF10 to the corresponding amino acids in human Notch 2. Mutants in full-length Notch sequences were generated by QuikChange® mutagenesis (Stratagene) and verified by sequencing. […] Cells were also co-transfected with a plasmid encoding green fluorescent protein (GFP) to mark those cells that received transfected plasmid. Cells were incubated with 59R1 or 59R5 and fluorescent secondary antibody and then examined by FACS. 59R1 and 59R5 were detected by PE-conjugated goat anti-human Fc gamma specific antibody (Jackson Immunochemicals, #109-1,6-170).

T1 sequence (chain, as listed by the source limits assumed): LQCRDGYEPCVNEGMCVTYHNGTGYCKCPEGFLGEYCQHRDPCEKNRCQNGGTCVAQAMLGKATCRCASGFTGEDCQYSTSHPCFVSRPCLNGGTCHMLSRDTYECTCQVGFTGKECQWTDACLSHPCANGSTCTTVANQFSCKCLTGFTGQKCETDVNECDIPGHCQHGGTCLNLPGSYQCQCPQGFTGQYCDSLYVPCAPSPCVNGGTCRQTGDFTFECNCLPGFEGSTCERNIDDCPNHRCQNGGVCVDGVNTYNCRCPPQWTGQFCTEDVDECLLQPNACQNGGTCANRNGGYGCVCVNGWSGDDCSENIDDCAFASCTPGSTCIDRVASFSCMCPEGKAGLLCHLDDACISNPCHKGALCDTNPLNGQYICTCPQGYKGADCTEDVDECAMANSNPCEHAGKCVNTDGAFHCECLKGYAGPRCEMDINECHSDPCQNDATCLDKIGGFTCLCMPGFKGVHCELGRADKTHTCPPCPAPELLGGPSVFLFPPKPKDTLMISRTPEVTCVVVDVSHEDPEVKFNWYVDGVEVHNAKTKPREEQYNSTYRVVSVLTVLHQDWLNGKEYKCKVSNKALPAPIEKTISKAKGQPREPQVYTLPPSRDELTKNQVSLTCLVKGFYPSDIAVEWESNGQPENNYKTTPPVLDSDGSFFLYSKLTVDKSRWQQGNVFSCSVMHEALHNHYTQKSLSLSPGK

B1: 59R1 Fab (Fab, V domains shown)
VH: QVQLVESGGGLVQPGGSLRLSCAASGFTFSSSGMSWVRQAPGKGLEWVSVIASSGSNTYYADSVKGRFTISRDNSKNTLYLQMNSLRAEDTAVYYCARGIFFAIWGQGTLVTVSS
VL: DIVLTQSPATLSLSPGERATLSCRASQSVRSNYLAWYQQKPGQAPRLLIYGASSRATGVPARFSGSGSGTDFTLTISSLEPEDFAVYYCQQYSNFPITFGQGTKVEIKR
notes: Human Fab from a synthetic phage library; also called Clone 1; clone 1
- binding result [1]: binds

B2: 59R5 antibody (antibody, human IgG2, kappa, V domains shown)
VH: B1 VH with Q1E, G99S, F102Y, A103T, I104T
VL: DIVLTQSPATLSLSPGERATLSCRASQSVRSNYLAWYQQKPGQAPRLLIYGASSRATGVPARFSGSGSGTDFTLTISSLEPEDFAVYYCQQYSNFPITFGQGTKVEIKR
notes: also called anti-Notch2/3 antibody 59R5; 59R5 IgG2
- binding result [2]: binds
